Data reported in IntAct's records for PubMed 12128212.

B1: Protein daughter of sevenless (Drosophila melanogaster (Fruit fly)), Q9VZZ9 (parent)
chain: MDRTFYEGWLIKSPPTKRIWRARWRRRYFTLKQGEIPEQFCLEYYTDHNCRKLKGVIDLDQCEQVDCGLRLENRKQKFQYMFDIKTPKRTYYLAAETEADMRDWVNCICQVCHLHDTKQSNELPLGAVGADENRTQHTSSSGGLSNSTQNTTTTSLHSSAGTTAPQASVPNAGGSAQLRRPAVIEEQPMPSNAGNNNSDSVYVNTEYSNRETMLCDANFDQQELLSAAQQQPPPSPATALYLNHSALIQAQAAAAAAEQLQQQQQQAARLAVSANGVVRKLPEHLVLTQQTLAEAAAQQHSSVQASPALSTASGPYIPISECFSGSPRFLPGVPLPGADLAIPNNPTTPLNNLDPKFYDTPRSHNNIGLNLTNDQSYSPKITNLSLQQLANNNASKQRSDSDSESVFTDDDEWAHPLPLRENVDRSTRPSDSSIENESFVLTYSQRFSKMPEEGGAIVPPAEKSSKLAGAASLPEAGDQGTLDKLAKVLKNKNNLILDFKENEKIPRDLPQLSDTENTSPAIVARRNAHSAFIEESYDIPRSHQQPYYNVNQLLGERPVTSPHNSNPIAASTPNLMAADLGAVAAISAAANPGLMGEAQAVASSPTSARTLPRHCYTNAAPTKMEGNVFRYDFMEQADCPPVNRKLKPKVAGGLPVVEDKPPEEFPAKPPVGVDQLTNKLGAAQLQQPIGPPSVDRKCKPNAYKLGNSATMSPATRRSSGAPLSMVLPHETDVHSPAAANAFFHETRTLPRQQHRHHPNSPGSMSVQHQRTASAAAAMMSLTAAAAPKQQAAAQTEHKLQYFDLDVTNKPPLLNRSSMSVGNLYSQGGNGASGMRFAGVEAGGARAPVPSSVVYRSVDFVKTEAFKRIREERESSGNK

Variants of: B1
Details: with grap_drome drk

Variant	effect of a mutation on the interaction
R696K	decreasing interaction strength
R644K	decreasing interaction strength
R644K;R696K	disrupting interaction strength

Variants of: B1
Details: with grap_drome drk
Remark: another data set of the same source

Variant	effect of a mutation on the interaction
R644K;R696K	disrupting interaction strength
